Measured values published in the supplement of paper PMC9112550, “Optimization of the antimicrobial peptide Bac7 by deep mutational scanning” (BMC Biology, 2022).

Test system: Escherichia coli TOP10
Test: shrunken log2 fold change of peptide-encoding DNA abundance (4.5 h post-induction vs induction); higher = less antimicrobial activity (less host growth inhibition)
Conditions: time post-induction: 4.5 h; library: site-saturation at positions 5, 18, 19, 20
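Also: peptides expressed intracellularly from a pBAD plasmid library in pooled LB shake-flask culture, induced with 0.3% L-arabinose, DNA abundance read by NGS, three biological replicates, DESeq2 with apeglm shrinkage.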

| Sequence | shrunken log2 fold change |
| --- | --- |
| RRIRFRPPRLPRPRPRPPTRPRP | 0.748 |
| RRIRFRPPRLPRPRPRPPYAPRP | 0.0335 |
| RRIRFRPPRLPRPRPRPQAEPRP | -0.263 |
| RRIRFRPPRLPRPRPRPQAHPRP | -0.454 |
| RRIRFRPPRLPRPRPRPQAMPRP | 0.0123 |
| RRIRFRPPRLPRPRPRPQASPRP | 0.0447 |
| RRIRFRPPRLPRPRPRPQCTPRP | -0.137 |
| RRIRFRPPRLPRPRPRPQDCPRP | 0.00177 |
| RRIRFRPPRLPRPRPRPQDMPRP | 0.028 |
| RRIRFRPPRLPRPRPRPQDPPRP | -0.00978 |
| RRIRFRPPRLPRPRPRPQDQPRP | -0.0978 |
| RRIRFRPPRLPRPRPRPQDYPRP | 0.0577 |
| RRIRFRPPRLPRPRPRPQECPRP | 0.0519 |
| RRIRFRPPRLPRPRPRPQFLPRP | -0.236 |
| RRIRFRPPRLPRPRPRPQGEPRP | 0.00441 |
| RRIRFRPPRLPRPRPRPQGVPRP | 0.103 |
| RRIRFRPPRLPRPRPRPQKIPRP | -0.299 |
| RRIRFRPPRLPRPRPRPQLTPRP | -0.527 |
| RRIRFRPPRLPRPRPRPQMTPRP | -0.169 |
| RRIRFRPPRLPRPRPRPQMVPRP | -0.0194 |
| RRIRFRPPRLPRPRPRPQNDPRP | -0.296 |
| RRIRFRPPRLPRPRPRPQNFPRP | 0.0645 |
| RRIRFRPPRLPRPRPRPQNIPRP | -0.411 |
| RRIRFRPPRLPRPRPRPQPIPRP | 0.222 |
| RRIRFRPPRLPRPRPRPQREPRP | 0.296 |

| Sequence | shrunken log2 fold change |
| --- | --- |
| RRIRFRPPRLPRPRPRPQSNPRP | -0.354 |
| RRIRFRPPRLPRPRPRPQTMPRP | -0.144 |
| RRIRFRPPRLPRPRPRPQWTPRP | -0.075 |
| RRIRFRPPRLPRPRPRPQYEPRP | 0.0625 |
| RRIRFRPPRLPRPRPRPRANPRP | 0.509 |
| RRIRFRPPRLPRPRPRPRAVPRP | 0.475 |
| RRIRFRPPRLPRPRPRPRCCPRP | 0.164 |
| RRIRFRPPRLPRPRPRPRDEPRP | 0.278 |
| RRIRFRPPRLPRPRPRPRDFPRP | -0.141 |
| RRIRFRPPRLPRPRPRPRDRPRP | 0.387 |
| RRIRFRPPRLPRPRPRPRFHPRP | -0.409 |
| RRIRFRPPRLPRPRPRPRHLPRP | -0.0297 |
| RRIRFRPPRLPRPRPRPRHPPRP | 0.0568 |
| RRIRFRPPRLPRPRPRPRISPRP | -0.0207 |
| RRIRFRPPRLPRPRPRPRKKPRP | 0.14 |
| RRIRFRPPRLPRPRPRPRKQPRP | 0.415 |
| RRIRFRPPRLPRPRPRPRMAPRP | 0.375 |
| RRIRFRPPRLPRPRPRPRNGPRP | 0.101 |
| RRIRFRPPRLPRPRPRPRPVPRP | 0.633 |
| RRIRFRPPRLPRPRPRPRRFPRP | 0.0577 |
| RRIRFRPPRLPRPRPRPRRWPRP | 0.934 |
| RRIRFRPPRLPRPRPRPRSDPRP | 0.193 |
| RRIRFRPPRLPRPRPRPRTQPRP | 1.93 |
| RRIRFRPPRLPRPRPRPRTVPRP | 0.086 |
| RRIRFRPPRLPRPRPRPRVLPRP | 0.121 |

| Sequence | shrunken log2 fold change |
| --- | --- |
| RRIRFRPPRLPRPRPRPRVNPRP | -0.116 |
| RRIRFRPPRLPRPRPRPRWWPRP | 0.34 |
| RRIRFRPPRLPRPRPRPRYFPRP | 0.0373 |
| RRIRFRPPRLPRPRPRPSAWPRP | 0.534 |
| RRIRFRPPRLPRPRPRPSDFPRP | -0.487 |
| RRIRFRPPRLPRPRPRPSEEPRP | -0.196 |
| RRIRFRPPRLPRPRPRPSELPRP | -0.0817 |
| RRIRFRPPRLPRPRPRPSEQPRP | -0.217 |
| RRIRFRPPRLPRPRPRPSFPPRP | -0.38 |
| RRIRFRPPRLPRPRPRPSHCPRP | -0.28 |
| RRIRFRPPRLPRPRPRPSHIPRP | -0.216 |
| RRIRFRPPRLPRPRPRPSIPPRP | -0.602 |
| RRIRFRPPRLPRPRPRPSLAPRP | 0.119 |
| RRIRFRPPRLPRPRPRPSLSPRP | -0.623 |
| RRIRFRPPRLPRPRPRPSLVPRP | -0.167 |
| RRIRFRPPRLPRPRPRPSLYPRP | -0.594 |
| RRIRFRPPRLPRPRPRPSMRPRP | 0.377 |
| RRIRFRPPRLPRPRPRPSQGPRP | -0.117 |
| RRIRFRPPRLPRPRPRPSQLPRP | -0.462 |
| RRIRFRPPRLPRPRPRPSQPPRP | -0.0776 |
| RRIRFRPPRLPRPRPRPSTWPRP | -0.000934 |
| RRIRFRPPRLPRPRPRPSWEPRP | -0.0476 |
| RRIRFRPPRLPRPRPRPSWPPRP | -0.0802 |
| RRIRFRPPRLPRPRPRPTCWPRP | 0.0659 |
| RRIRFRPPRLPRPRPRPTDKPRP | 0.00702 |

| Sequence | shrunken log2 fold change |
| --- | --- |
| RRIRFRPPRLPRPRPRPTEKPRP | -0.0949 |
| RRIRFRPPRLPRPRPRPTERPRP | -0.22 |
| RRIRFRPPRLPRPRPRPTESPRP | -0.154 |
| RRIRFRPPRLPRPRPRPTEWPRP | 0.00734 |
| RRIRFRPPRLPRPRPRPTFTPRP | -0.157 |
| RRIRFRPPRLPRPRPRPTGMPRP | 0.00753 |
| RRIRFRPPRLPRPRPRPTHCPRP | -0.0892 |
| RRIRFRPPRLPRPRPRPTHDPRP | 0.241 |
| RRIRFRPPRLPRPRPRPTHGPRP | -0.0666 |
| RRIRFRPPRLPRPRPRPTHIPRP | -0.496 |
| RRIRFRPPRLPRPRPRPTKDPRP | -0.196 |
| RRIRFRPPRLPRPRPRPTLQPRP | -0.107 |
| RRIRFRPPRLPRPRPRPTLSPRP | 0.0323 |
| RRIRFRPPRLPRPRPRPTMHPRP | -0.138 |
| RRIRFRPPRLPRPRPRPTPKPRP | 0.681 |
| RRIRFRPPRLPRPRPRPTQDPRP | 0.33 |
| RRIRFRPPRLPRPRPRPTQPPRP | 0.202 |
| RRIRFRPPRLPRPRPRPTQRPRP | 0.98 |
| RRIRFRPPRLPRPRPRPTQVPRP | -0.284 |
| RRIRFRPPRLPRPRPRPTTFPRP | -0.388 |
| RRIRFRPPRLPRPRPRPTVVPRP | 0.174 |
| RRIRFRPPRLPRPRPRPTYAPRP | -0.203 |
| RRIRFRPPRLPRPRPRPTYVPRP | -0.137 |
| RRIRFRPPRLPRPRPRPVCTPRP | -0.324 |
| RRIRFRPPRLPRPRPRPVETPRP | -0.0497 |

| Sequence | shrunken log2 fold change |
| --- | --- |
| RRIRFRPPRLPRPRPRPVFCPRP | -0.0281 |
| RRIRFRPPRLPRPRPRPVFIPRP | -0.811 |
| RRIRFRPPRLPRPRPRPVFQPRP | 0.071 |
| RRIRFRPPRLPRPRPRPVGCPRP | -0.0325 |
| RRIRFRPPRLPRPRPRPVHGPRP | 0.284 |
| RRIRFRPPRLPRPRPRPVITPRP | -0.666 |
| RRIRFRPPRLPRPRPRPVKVPRP | -0.297 |
| RRIRFRPPRLPRPRPRPVLDPRP | -0.474 |
| RRIRFRPPRLPRPRPRPVLEPRP | 0.00555 |
| RRIRFRPPRLPRPRPRPVNAPRP | 0.135 |
| RRIRFRPPRLPRPRPRPVNCPRP | -0.15 |
| RRIRFRPPRLPRPRPRPVNFPRP | -0.39 |
| RRIRFRPPRLPRPRPRPVNMPRP | -1.23 |
| RRIRFRPPRLPRPRPRPVPFPRP | -0.102 |
| RRIRFRPPRLPRPRPRPVPNPRP | -0.0743 |
| RRIRFRPPRLPRPRPRPVQPPRP | 0.246 |
| RRIRFRPPRLPRPRPRPVRQPRP | 0.0478 |
| RRIRFRPPRLPRPRPRPVSLPRP | -0.00718 |
| RRIRFRPPRLPRPRPRPVSPPRP | -0.172 |
| RRIRFRPPRLPRPRPRPVSSPRP | -0.371 |
| RRIRFRPPRLPRPRPRPVTCPRP | -0.491 |
| RRIRFRPPRLPRPRPRPVVLPRP | 0.0119 |
| RRIRFRPPRLPRPRPRPVWIPRP | -0.0471 |
| RRIRFRPPRLPRPRPRPWAEPRP | 0.212 |
| RRIRFRPPRLPRPRPRPWAFPRP | -0.161 |

| Sequence | shrunken log2 fold change |
| --- | --- |
| RRIRFRPPRLPRPRPRPWEIPRP | -0.0062 |
| RRIRFRPPRLPRPRPRPWEWPRP | 0.0781 |
| RRIRFRPPRLPRPRPRPWFSPRP | -0.0536 |
| RRIRFRPPRLPRPRPRPWFVPRP | -0.283 |
| RRIRFRPPRLPRPRPRPWGDPRP | 0.00532 |
| RRIRFRPPRLPRPRPRPWGNPRP | 0.117 |
| RRIRFRPPRLPRPRPRPWGQPRP | 0.0397 |
| RRIRFRPPRLPRPRPRPWGYPRP | -0.164 |
| RRIRFRPPRLPRPRPRPWHQPRP | -0.338 |
| RRIRFRPPRLPRPRPRPWIEPRP | -0.224 |
| RRIRFRPPRLPRPRPRPWIGPRP | -0.398 |
| RRIRFRPPRLPRPRPRPWIHPRP | -0.804 |
| RRIRFRPPRLPRPRPRPWKDPRP | -0.192 |
| RRIRFRPPRLPRPRPRPWKFPRP | 0.0664 |
| RRIRFRPPRLPRPRPRPWKNPRP | 0.0106 |
| RRIRFRPPRLPRPRPRPWLDPRP | -0.0286 |
| RRIRFRPPRLPRPRPRPWLMPRP | -0.58 |
| RRIRFRPPRLPRPRPRPWMQPRP | -0.139 |
| RRIRFRPPRLPRPRPRPWNCPRP | -0.0434 |
| RRIRFRPPRLPRPRPRPWPSPRP | -0.0611 |
| RRIRFRPPRLPRPRPRPWPTPRP | -0.0457 |
| RRIRFRPPRLPRPRPRPWQIPRP | -0.0302 |
| RRIRFRPPRLPRPRPRPWSPPRP | -0.491 |
| RRIRFRPPRLPRPRPRPWVGPRP | -0.0721 |
| RRIRFRPPRLPRPRPRPWWKPRP | 0.0472 |
